Test results as given in PMC7335187, “Super-assembly of ER-phagy receptor Atg40 induces local ER remodeling at contacts with forming autophagosomal membranes” (Nature Communications, 2020).

Tests used:
Assay in all cases: ITC
[1] = biological target: T1, Atg8 (1-116) K26P, P38182; conditions: chain shown with the change; Atg8 (1.8 mM)
T1 chain: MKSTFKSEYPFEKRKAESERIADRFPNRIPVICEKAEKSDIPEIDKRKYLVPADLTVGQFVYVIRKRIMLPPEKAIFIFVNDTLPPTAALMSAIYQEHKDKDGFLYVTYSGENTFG

[2] = biological target: human GABARAP (1-116), O95166; conditions: chain shown with the change
[3] = biological target: T2, FAM134B^444–470 peptide, Q9H6L5; conditions: chain shown with the change
T2 chain: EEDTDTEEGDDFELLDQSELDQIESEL

[4] = biological target: T3, SEC62^355–376 peptide, Q99442; conditions: chain shown with the change
T3 chain: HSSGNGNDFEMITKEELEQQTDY

In the case of EFPNDYAFMEAILDET [Atg40^237–252 peptide, Q99325 D243A; D247A], the Kd [1] is reported as 83.3 µM.

In the case of GPEEDTDTEEGDDAELLDQSELDQIESELY [FAM134B^444–470 peptide, Q9H6L5 F455A], the Kd [2] is reported as 3.55 µM.

B1: human GABARAP (1-116), O95166 R67A (protein)
chain: MKFVYKEEHPFEKRRSEGEKIRKKYPDRVPVIVEKAPKARIGDLDKKKYLVPSDLTVGQFYFLIRKAIHLRAEDALFFFVNNVIPPTSATMGQLYQEHHEEDFFLYIAYSDESVYG
B1 gave a Kd [3] of 1.88 µM and a Kd [4] of 9.43 µM.

GPHSSGNGNDFAMITKEALEQQTDY [SEC62^355–376 peptide, Q99442 E364A; E370A] was tested, and the Kd [2] was 35.1 µM.
